T1: Isl-1-Myc (UniProt P61372 1-349)
T1 sequence: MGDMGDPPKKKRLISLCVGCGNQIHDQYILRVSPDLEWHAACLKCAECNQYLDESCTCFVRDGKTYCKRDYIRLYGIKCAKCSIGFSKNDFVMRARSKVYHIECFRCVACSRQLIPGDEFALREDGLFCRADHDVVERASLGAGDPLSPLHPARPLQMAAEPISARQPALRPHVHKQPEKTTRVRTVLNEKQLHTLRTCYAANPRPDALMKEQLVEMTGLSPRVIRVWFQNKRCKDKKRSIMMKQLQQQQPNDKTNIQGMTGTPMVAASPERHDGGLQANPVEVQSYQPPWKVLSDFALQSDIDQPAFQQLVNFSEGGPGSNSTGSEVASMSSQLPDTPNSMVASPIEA

B1: Pdx1 Area II-3 (dsDNA)
DNA 1: AATGCATGCAATTAGACCAGAAGTGCTAA
DNA 2: TTAGCACTTCTGGTCTAATTGCATGCATT
B2: Pdx1 Area IV-4 (dsDNA)
DNA 1: TTATTGCCTGCCTTTAATTGTACTTAT
DNA 2: ATAAGTACAATTAAAGGCAGGCAATAA
B3: Pdx1 Area I-4 (dsDNA)
DNA 1: GTATCACCCATAATGGATTTAGCCACCT
DNA 2: AGGTGGCTAAATCCATTATGGGTGATAC

Each binder was assayed against T1, Isl-1-Myc (assay: competition).

Binding result, binds:
B1, B2, B3
